Laboratory results reported in patent publication US20220251184A1 (Regeneron, published 2022).
Substitutions are numbered along the chain they refer to.

T1: mouse BMP6 (R&D Systems, Cat #6325-BM) (mouse, UniProt P20722 372-510, limits assumed)
T1 construct: Bought protein (R&D Systems 6325-BM or 6325-BM/CF); also called mBMP6
T1 sequence: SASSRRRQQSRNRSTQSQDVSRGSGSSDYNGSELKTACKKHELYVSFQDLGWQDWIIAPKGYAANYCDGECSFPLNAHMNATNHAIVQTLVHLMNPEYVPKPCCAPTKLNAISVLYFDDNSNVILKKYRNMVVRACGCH

T2: Mouse GDF6 (mouse, UniProt P43028 335-454, limits assumed)
T2 sequence (looked up): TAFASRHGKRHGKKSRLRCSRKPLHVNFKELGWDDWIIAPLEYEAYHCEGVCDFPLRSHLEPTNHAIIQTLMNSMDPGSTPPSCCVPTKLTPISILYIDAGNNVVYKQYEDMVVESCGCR

T3: Human BMP14/GDF5 (human, UniProt P43026 382-501)
T3 sequence (looked up): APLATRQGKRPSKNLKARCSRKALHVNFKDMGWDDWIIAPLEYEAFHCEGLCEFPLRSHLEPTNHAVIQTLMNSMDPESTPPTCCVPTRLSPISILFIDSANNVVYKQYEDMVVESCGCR

T4: Human BMP10 (human, UniProt O95393 317-424)
T4 sequence (looked up): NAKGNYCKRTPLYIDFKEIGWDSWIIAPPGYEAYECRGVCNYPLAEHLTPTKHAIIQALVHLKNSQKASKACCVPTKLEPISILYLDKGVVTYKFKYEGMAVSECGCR

T5: Human BMP9 (human, UniProt Q9UK05 320-429)
T5 sequence (looked up): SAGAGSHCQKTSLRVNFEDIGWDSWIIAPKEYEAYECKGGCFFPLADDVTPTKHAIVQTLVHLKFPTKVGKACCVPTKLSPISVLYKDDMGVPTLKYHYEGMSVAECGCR

T6: human BMP6 (R&D Systems, Cat #507-BP) (human, UniProt P22004 375-513, limits assumed)
T6 construct: Bought protein (R&D Systems 507-BP or 507-BP/CF); also called hBMP6; hBMP-6
T6 sequence: T1 sequence with S21A, G23V, G25S, S26A, G31S, K39R

B1: H4H17871P (antibody, V domains shown)
VH: EVQLVESGGGLVQPGGSLRLSCAASGFTFNNYAMSWVRQAPGKGLEWVSAISGSGDSTYYADSVKGRFTISRDNSKNTLYLQMNSLRAEDTAVYYCAKRSRSSPFDPWGQGTLVTVSS
VL: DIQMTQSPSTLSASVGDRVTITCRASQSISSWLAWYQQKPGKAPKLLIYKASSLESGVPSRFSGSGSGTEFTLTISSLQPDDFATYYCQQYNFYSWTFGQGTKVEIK
notes: Fully human antibody; also called anti-BMP6 monoclonal antibody; BMP6 antibody of the invention
B2: H4H17855P (antibody, V domains shown)
VH: B1 VH with N30S, N31S, D56G, S57R, A61T, I70M, S100P, R101Y, S102N
VL: EIVLTQSPGTLSLSPGEGATLSCRASQSVSSSYLAWYQQKPGQAPRLLIYGASSRATGIPDRFSGSGSGTDFTLTISRLEPEDFVVYYCQHFGGTPFTFGGGTKVEIK
notes: as for B1

Experiments:
[1] = target: T1, mouse BMP6 (R&D Systems, Cat #6325-BM); assay: BLI (Octet HTX), mAb captured on Protein A sensor, 100 nM ligand, 25 C
Protocol: (§1) Binding cross-reactivity of anti-BMP6 monoclonal antibodies to BMP6 family members, (Human: BMP6, BMP5, BMP7, BMP8A, BMP9, BMP10, BMP12, BMP14, BMP3b, Activin A, and GDF3 and mouse: BMP6 and GDF6) was determined using a real-time Bio-Layer Interferometry (BLI) biosensor using Octet HTX instrument. All binding studies were performed in 10 mM HEPES, 150 mM NaCl, 3 mM EDTA, 1 mg/mL BSA, 50 μg/mL Heparin, and 0.05% v/v Surfactant Tween-20, pH 7.4 (HBS-EBHT) buffer at 25° C. with the plate shaking at a speed of 1000 rpm. To assess binding cross-reactivity, Protein A coated Octet biosensor (Pall ForteBio Corp., #18-5010) was first dipped in wells containing […] of anti-BMP6 monoclonal antibodies for 4 minutes followed by submerging in wells containing 100 nM of different BMP6 family members for 4 minutes. The biosensors were washed in HBS-EBHT buffer in between every step of the experiment. At the end of each cycle, the Protein A biosensor was regenerated using three alternate 5 second dips in 10 mM Glycine pH 2.0 and 10 second dip HBS-EBHT buffer. The real-time binding response was monitored during the course of the experiment and the binding response at the end of every step was recorded and tabulated as shown in Tables 8A and 8B.

Mouse GDF6 = target: T2, Mouse GDF6; assay: as above
Protocol: as §1

Human BMP14/GDF5 = target: T3, Human BMP14/GDF5; assay: as above
Protocol: as §1

Human BMP10 = target: T4, Human BMP10; assay: as above
Protocol: as §1

Human BMP9 = target: T5, Human BMP9; assay: as above
Protocol: as §1

[2] = target: T6, human BMP6 (R&D Systems, Cat #507-BP); assay: SPR (MASS-1), mAb captured on anti-human Fc, hBMP6 in solution, 37 C; no dissociation observed, kd manually fixed at 1.00E-05; 37 C; no dissociation observed, kd fixed at 1.00E-05
Protocol: (§2) Equilibrium dissociation constants (KD values) for human and mouse BMP6 binding to purified anti-BMP6 monoclonal antibodies of this invention were determined using a real-time surface plasmon resonance (SPR) biosensor instrument, MASS-1. All binding studies were performed in 10 mM HEPES, 150 mM NaCl, 3 mM EDTA, 1 μg/mL Heparin, and 0.05% v/v Surfactant Tween-20, pH 7.4 (HBS-EHT) running buffer at 25° C. and 37° C. The HCA sensor surface was first derivatized by amine coupling the monoclonal mouse anti-human Fc antibody (GE, #BR100839) and anti-BMP6 monoclonal antibodies were individually captured. Different concentrations of human BMP6 reagents (hBMP6; R&D Systems, Cat #507-BP; 60 nM-0.94 nM; 4-fold serial dilution) or mouse BMP6 (mBMP6; R&D Systems, Cat #6325-BM; 60 nM and 15 nM) prepared in HBS-EHT running buffer were injected over the captured anti-BMP6 monoclonal antibody for 4 minutes at a flow rate of 30 μL/minute, while the dissociation of BMP6 reagent bound to captured anti-BMP6 monoclonal antibody was monitored for 10 minutes in HBS-EHT running buffer. Kinetic association (kₐ) and dissociation (kd) rate constants were determined by fitting the real-time binding sensorgrams to a 1:1 binding model with mass transport limitation using Scrubber 2.0c software. […]

[3] = target: T6, human BMP6 (R&D Systems, Cat #507-BP); assay: SPR (MASS-1), mAb captured on anti-human Fc, hBMP6 in solution, 37 C; 37 C
Protocol: as §2

| binding response [1] [nm] | binding response (Mouse GDF6) [nm] | binding response (Human BMP14/GDF5) [nm] | binding response (Human BMP10) [nm] | binding response (Human BMP9) [nm] | koff [2] [s⁻¹] | koff [3] [s⁻¹] | Binder |
| --- | --- | --- | --- | --- | --- | --- | --- |
| 0.09 | -0.02 | -0.01 | 0.01 | 0.01 | ≤ 1e-05 |  | B1 |
| 0.09 | -0.02 | -0.02 | -0.01 | 0 |  | 8.17e-05 | B2 |
